From US20090181444A1, “MODIFIED CARBOHYDRATE PROCESSING ENZYME” (priority 2002, published 2009) come the findings set out here.

Substitutions are numbered along the chain they refer to. Names may count otherwise.

What all share (type): biochemical
A short description of data set [1]: Hydrolysis of 4-methylumbelliferyl-β-D-glucoside, initial rates. Particulars: 80° C., pH 6.5; for Km / kcat: 4-MUGlc. As for the experimental part: (§1) Parameters were determined by the method of initial rates. Activity was measured in time course assays of the hydrolysis of 4-methylumbelliferyl-β-D-glycosides (β-D-gluco, β-D-galacto, β-D-fuco, β-D-manno, β-D-xylo, β-D-glucurono) at 5-15 concentrations (0.001-1.5 mM) incubated at 80° C. in 50 mM sodium phosphate buffer, pH 6.5. Reactions were terminated at 2, 5, 10, 15 min by the addition of 100 μl of ice cold 1M NazCO3, pH 10 and analyzed (Labsystems Fluoroscan Ascent plate reader, […]). KM and kcat were derived by fitting the initial rates to hyperbolic Michaelis-Menten curves using GraFit 4 (Erithacus Software Ltd, Staines, UK).
(§2) Determination of the Michaelis-Menten parameters for the WT and mutant enzymes was performed at pH 6.5 at 80° C. for a broad range of representative, fluorophore-containing 4-methylumbelliferyl glycoside substrates, which allowed activities to be determined with a high degree of sensitivity (Table). Under these optimized assay conditions, the glucoside (Glc), galactoside (Gal) and fucoside (Fuc) substrates were hydrolysed well by SSβG-WT, but the xyloside (Xyl) substrate was hydrolysed relatively poorly (approx. 3% of turnover as determined by kcat compared with β-D-glucoside). […] In all cases the absolute D-stereospecificity and β-stereoselectivity of SSβG was maintained and no activity was detected towards L- or α-glycoside substrates.

A short description of data set [2]: Hydrolysis of 4-methylumbelliferyl-β-D-galactoside, initial rates. Particulars: 80° C., pH 6.5; for Km / kcat: 4-MUGal. As for the experimental part:
as §1, §2

Data set [3] can be described thus: Hydrolysis of 4-methylumbelliferyl-β-D-fucoside, initial rates. Particulars: for Km / kcat: 4-MUFuc, 80° C., pH 6.5. As for the experimental part: as §1, §2
A short description of data set [4]: Hydrolysis of 4-methylumbelliferyl-β-D-mannoside, initial rates. Particulars: for Km / kcat: 4-MUMan, 80° C., pH 6.5. As for the experimental part: as §1, §2
Data set [5] is described as follows: Hydrolysis of 4-methylumbelliferyl-β-D-xyloside, initial rates. Particulars: for Km / kcat: 4-MUXyl, 80° C., pH 6.5. As for the experimental part: as §1, §2
A short description of data set [6]: Hydrolysis of 4-methylumbelliferyl-β-D-glucuronide, initial rates. Particulars: for kcat / Km: 4-MUGlcA, 80° C. As for the experimental part: as §1, §2
Data set [7] can be described thus: Parallel one-pot glycoside synthesis (transglycosylation to MeOH). Particulars: 8 h, 50° C., 1:9 MeOH:phosphate buffer pH 6.5. As for the experimental part: Enzyme (WT, […] or E432C, 1 mg) was added to a mixed solution (1 mL) of para-nitrophenyl (pNP) β-D-manno-, galacto-, gluco- and xylo- pyranosides (0.03 mmol of each) in 1:9 MeOH:phosphate buffer (pH 6.5) and incubated at 50° C. for 45 min (WT), 4 h (WT), 8 h (W433C, E432C). After this time the solutions were extracted with EtOAc to remove para-nitrophenol and passed through short Sephadex and Celite:Graphite (1:1) columns to remove protein, pNP-glycoside and remaining para-nitrophenol. Solvent was removed and product mixtures were analysed by ^1H NMR and ESMS. Yields based on donor were calculated from integration of anomeric proton resonances in ^1H NMR (D2O, 500 MHz): α-Gal (δ 5.12, d, […]), α-Glc (δ 5.08, d, 3.8 Hz), α-Xyl (δ 5.04, d, J=3.4 Hz), α-Man (δ 5.03, d, J=1.8 Hz), β-Man (δ 4.75, s), β-Glc (δ 4.49, d, J=8.0 Hz), P-Gal (δ 4.45, d, 7.9 Hz), Me-β-Man (δ 4.44, s), β-Xyl (δ 4.42, d, J=7.8 Hz), Me-β-Glc (δ 4.23, d, J 8.1 Hz), Me-β-Xyl (δ 4.18, d, J=7.8 Hz), Me-β-Gal (δ 4.17, d, J=8.0 Hz).
Scheme 1: Parallel glycoside syntheses using SSβG-WT, -E432C and -W433C as catalysts. […] Such balanced libraries are not produced by SSβG-WT even under varying reaction times.

Data set [8] in a line: Substrate specificity compared across 4-methylumbelliferyl-β-D-glycosides. As for the experimental part:
as §1, §2

B1: E432C: SSβG point mutant Glu-432→Cys (protein, listed as Sulfolobus solfataricus)
chain: MYSFPNSFRFGWSQAGFQSEMGTPGSEDPNTDWYKWVHDPENMAAGLVSGDLPENGPGYWGNYKTFHDNAQKMGLKIARLNVEWSRIFPNPLPRPQNFDESKQDVTEVEINENELKRLDEYANKDALNHYREIFKDLKSRGLYFILNMYHWPLPLWLHDPIRVRRGDFTGPSGWLSTRTVYEFARFSAYIAWKFDDLVDEYSTMNEPNVVGGLGYVGVKSGFPPGYLSFELSRRHMYNIIQAHARAYDGIKSVSKKPVGIIYANSSFQPLTDKDMEAVEMAENDNRWWFFDAIIRGEITRGNEKIVRDDLKGRLDWIGVNYYTRTVVKRTEKGYVSLGGYGHGCERNSVSLAGLPTSDFGWEFFPEGLYDVLTKYWNRYHLYMYVTENGIADDADYQRPYYLVSHVYQVHRAINSGADVRGYLHWSLADNYCWASGFSMRFGLLKVDYNTKRLYWRPSALVYREIATNGAITDEIEHLNSVPPVKPLRH
For B1, in data set [1], the Km (as a rule, the concentration of substrate that gives half-maximal velocity) stood at 340 ± 70 µM; the kcat (as a rule, the maximal rate divided by the concentration of active sites) amounted to 5.1 ± 0.5 s⁻¹; the “Glc kcat/KM reduction relative to WT” value is on record as 200 fold. In data set [2], the Michaelis-Menten constant (Km) is 470 ± 140 µM, the catalytic constant (kcat) amounted to 5.4 ± 0.8 s⁻¹ and the “Gal kcat/KM reduction relative to WT” value came to 130 fold. Besides, in data set [3], the Km came out at 340 ± 40 µM and the catalytic constant (kcat) turned out to be 18 ± 1 s⁻¹. Further, in data set [4], the “kcat (Man) increase relative to WT” value was 2 fold, the Km stood at 900 ± 260 µM and the kcat stood at 2.8 ± 0.7 s⁻¹. Also, in data set [5], the Michaelis constant (Km) was 1260 ± 210 µM and the kcat is 2.8 ± 0.3 s⁻¹. For the same molecule, in data set [6] (pH 6.5), the kcat entry is recorded as “NAD” and the “activity towards GlcA” value is “no detectable activity”. Also, in data set [7], the “Yield of Products, product 1 (β-glycoside of Glc)” value was 22%; the “Yield of Products, product 2 (β-glycoside of Gal)” value was determined as 24%; the “Yield of Products, product 3 (β-glycoside of Man)” value is recorded as 14%; the “Yield of Products, product 4 (β-glycoside of Xyl)” value came to 17%. In data set [7], the “Yield of Products, product 5” value is given as 7%; the “Yield of Products, product 6” value is given as 9%; the “Yield of Products, product 7” value is given as 3%; the “Yield of Products, product 8” value was 4%. Also, the “kcat values for Glc,Gal,Xyl,Man substrates” value in data set [8] fell in the range of 2.8 to 5.4 s⁻¹.

B2: M439C: SSβG point mutant Met-439→Cys (protein)
chain: B1 chain with C432E, M439C
As to B2, the Michaelis-Menten constant (Km) in data set [1] stood at 68 ± 28 µM; in data set [2] it was 83 ± 16 µM; in data set [3], 23 ± 5 µM; in data set [4] it was 42 ± 15 µM; in data set [5], 68 ± 7 µM; in data set [6] (pH 6.5, read-out: Km), 1.4 ± 0.6 mM. The catalytic constant (kcat) was 190 ± 40 s⁻¹ in data set [1]; 94 ± 11 s⁻¹ in data set [2]; 91 ± 8 s⁻¹ in data set [3]; 2.3 ± 0.4 s⁻¹ in data set [4]; 9.3 ± 0.2 s⁻¹ in data set [5]; 1.3 ± 0.4 s⁻¹ in data set [6] (pH 6.5). Further, in data set [3], the “kcat/KM for Fuc lower than WT” value is 1.8 fold. For the same molecule, the “kcat/KM for Xyl higher than WT” value in data set [5] was 4.7 fold. Besides, the “absolute increase in Xyl activity” value in data set [5] (relative to WT) was 5 fold. Also, the “kcat/KM for GlcA higher than WT” value in data set [6] is given as 1.5 fold. Moreover, the “increase in Xyl over Fuc specificity” value in data set [8] (relative to WT) was 10 fold.

B3: W433C: SSβG point mutant Trp-433→Cys (protein, listed as Sulfolobus solfataricus)
chain: B1 chain with C432E, W433C
As for B3, in data set [1], the Michaelis constant (Km) is 1610 ± 350 µM, the kcat came out at 33 ± 5 s⁻¹ and the “Glc kcat/KM reduction relative to WT” value was 140 fold. In data set [2], the Km is 2200 ± 1200 µM, the turnover number (kcat) turned out to be 14 ± 6 s⁻¹ and the “Gal kcat/KM reduction relative to WT” value was determined as 230 fold. Besides, in data set [3], the Michaelis constant (Km) was determined as 410 ± 90 µM and the turnover number (kcat) came to 31 ± 3 s⁻¹. Further, in data set [4], the Michaelis-Menten constant (Km) was 180 ± 20 µM and the turnover number (kcat) stood at 0.92 ± 0.05 s⁻¹. Moreover, in data set [5], the “kcat (Xyl) lowering relative to WT” value worked out at 2.9 fold, the Km was determined as 590 ± 190 µM and the kcat came out at 1.5 ± 0.3 s⁻¹. In data set [6] (pH 6.5), the Michaelis constant (Km) result was “NAD^” and the kcat result is listed as “NAD”. In addition, in data set [7], the “Yield of Products, product 1 (β-glycoside of Glc)” value amounted to 36%; the “Yield of Products, product 2 (β-glycoside of Gal)” value came to 18%; the “Yield of Products, product 3 (β-glycoside of Man)” value is 8%; the “Yield of Products, product 4 (β-glycoside of Xyl)” value was 13%. In data set [7], the “Yield of Products, product 5” value was determined as 11%; the “Yield of Products, product 6” value was found to be 6%; the “Yield of Products, product 7” value is listed as 3%; the “Yield of Products, product 8” value was 5%. Further, in data set [8], the “broadening of Gal:Man stereospecificity relative to WT” value worked out at 25 fold and the “specificity range of kcat/KM for Glc:Gal:Xyl:Man” value was found to be 8 fold.
